Drawing on patent US20220332804A1 (CSL INNOVATION, published 2022), this text covers Kd for one molecule.

Positions count from the first letter of the chain named.

Test in all cases: SPR, antibody captured, C2 as analyte;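 also: biacore at 37 °C, anti-C2 mAbs held by immobilised goat anti-human IgG, C2 alanine or serine mutants injected, double-referenced sensorgrams fitted to a 1:1 kinetic or steady-state model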
In assay [1] the target is T1, human C2 I272A (human, UniProt P06681 21-752).
T1 sequence: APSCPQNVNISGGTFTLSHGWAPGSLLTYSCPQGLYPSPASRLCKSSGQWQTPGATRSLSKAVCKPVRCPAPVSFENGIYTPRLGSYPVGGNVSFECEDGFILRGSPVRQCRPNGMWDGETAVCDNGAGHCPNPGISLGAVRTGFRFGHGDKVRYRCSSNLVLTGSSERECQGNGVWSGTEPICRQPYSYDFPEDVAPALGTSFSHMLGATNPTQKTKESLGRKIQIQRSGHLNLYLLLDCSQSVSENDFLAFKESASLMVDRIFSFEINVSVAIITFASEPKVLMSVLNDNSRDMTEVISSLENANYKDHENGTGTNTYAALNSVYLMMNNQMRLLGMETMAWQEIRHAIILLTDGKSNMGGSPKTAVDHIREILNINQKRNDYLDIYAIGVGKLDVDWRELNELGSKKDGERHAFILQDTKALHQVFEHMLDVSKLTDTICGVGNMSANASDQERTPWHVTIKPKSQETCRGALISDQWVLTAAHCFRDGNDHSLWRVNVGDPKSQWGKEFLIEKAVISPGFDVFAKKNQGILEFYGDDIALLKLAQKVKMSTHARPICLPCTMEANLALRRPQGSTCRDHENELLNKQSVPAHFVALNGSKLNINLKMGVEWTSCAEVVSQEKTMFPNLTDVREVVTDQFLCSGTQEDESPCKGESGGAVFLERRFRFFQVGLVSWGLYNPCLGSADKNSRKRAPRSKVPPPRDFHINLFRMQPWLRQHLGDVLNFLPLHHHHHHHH

Assay [2] has as its target T2, human C2 N424A (human, UniProt P06681 21-752).
T2 sequence: T1 sequence with A252I, N404A

In assay [3] the target is T3, human C2 V465A (human, UniProt P06681 21-752).
T3 sequence: T1 sequence with A252I, V445A

The target in assay [4] is T4, human C2 G466A (human, UniProt P06681 21-752).
T4 sequence: T1 sequence with A252I, G446A

B1: RF16-242 (antibody, human IgG4 S228P, lambda, V domains shown)
VH: EVQLLQSGAEVKKPGESLKISCKGSGYSFTSYWIGWVRQMPGKGLEWMGIIYPGDSDTRYSPSFQGQVTISADKSISTAYLQWSSLKASDTAMYYCARRGHYGDYFDYWGQGTLVTVSS
VL: SYELTQPPSVSVSPGQTARITCSGDALPKKYAYWYHQKSGQAPVLVIYEDRRRPSEIPERFSGSSSGTMATLTITGAQVEDEGVYFCYSRDRAGNQRVFGGGTQLTVLG
notes: pH-dependent anti-C2 antibody from a phage display library
With B1, the dissociation constant (Kd) in assay [1] was 10.3 nM; in assay [2] it was 5.7 nM; in assay [3], 16.3 nM; in assay [4], 24.9 nM.

What is called Kd is the free concentration of one partner at which half of the binding sites on the other are occupied at equilibrium, for simple one-to-one binding. High values mean weaker binding, low ones tighter binding.
